Assay [1] addresses RSV IN (1-278 aa) (Rous sarcoma virus (Prague A)).
Assay [2] has the same target. Briefly: SEC.
The target in assay [3] is RSV IN (1-269) (Rous sarcoma virus (Prague A)). Briefly: SEC. For orientation: Size exclusion chromatography separates by hydrodynamic size, large species first.

Where “and” joins values, the source holds several entries; their conditions need not be identical. Equal values may be shown once. Read-outs that look alike come from different tables or passages of the source.

These results are taken from publication doi:10.1101/2025.09.09.675266.

What is called stoichiometry N is a count of units in the complex or per binding partner. RSV IN (1-278 aa) (domain or fragment): the stoichiometry N in assay [1] was 2; in assay [2] it was 4 and 8.
RSV IN (1-269) (domain or fragment): the stoichiometry N in assay [3] is 4.
